Structures can show the parent of a compound that is named as a salt.
B1: Chimera 46-73: CYP102A1 heme domain with residues 46-73 from CYP102A2 (protein)
chain: TIKEMPQPKTFGELKNLPLLNTDKPVQALMKIADELGEIFKFEAPAGTTIVVSGHELVKEVCDEERFDKSIEGALKFVRDFAGDGLATSWTHEKNWKKAHNILLPSFSQQAMKGYHAMMVDIAVQLVQKWERLNADEHIEVPEDMTRLTLDTIGLCGFNYRFNSFYRDQPHPFITSMVRALDEAMNKLQRANPDDPAYDENKRQFQEDIKVMNDLVDKIIADRKASGEQSDDLLTHMLNGKDPETGEPLDDENIRYQIITFLIAGHETTSGLLSFALYFLVKNPHVLQKAAEEAARVLVDPVPSYKQVKQLKYVGMVLNEALRLWPTAPAFSLYAKEDTVLGGEYPLEKGDELMVLIPQLHRDKTIWGDDVEEFRPERFENPSAIPQHAFKPFGNGQRACIGQQFALHEATLVLGMMLKHFDFEDHTNYELDIKETLTLKPEGFVVKAKSKKIPLGGIPSPST
modifications: Chimeric Cytochrome P450 heme group sequence from Bacillus megaterium and Bacillus subtilis
notes: CYP102A1 heme domain with residues 46-73 from CYP102A2
B2: Chimera 277-365: CYP102A1 heme domain with residues 277-365 from CYP102A2 (protein)
chain: TIKEMPQPKTFGELKNLPLLNTDKPVQALMKIADELGEIFKFEAPGRVTRYLSSQRLIKEACDESRFDKNLSQALKFVRDFAGDGLATSWTHEKNWKKAHNILLPSFSQQAMKGYHAMMVDIAVQLVQKWERLNADEHIEVPEDMTRLTLDTIGLCGFNYRFNSFYRDQPHPFITSMVRALDEAMNKLQRANPDDPAYDENKRQFQEDIKVMNDLVDKIIADRKASGEQSDDLLTHMLNGKDPETGEPLDDENIRYQIITFLIAGHETTSGLLSFATYFLLKHPDKLKKAYEEVDRVLTDAAPTYKQVLELTYIRMILNESLRLWPTAPAFSLYPKEDTVIGGKFPITTNDRISVLIPQLHRDRDIWGDDVEEFRPERFENPSAIPQHAFKPFGNGQRACIGQQFALHEATLVLGMMLKHFDFEDHTNYELDIKETLTLKPEGFVVKAKSKKIPLGGIPSPST
modifications: Chimeric Cytochrome P450 heme group sequence from Bacillus megaterium and Bacillus subtilis
notes: CYP102A1 heme domain with residues 277-365 from CYP102A2
B3: Chimera 65-256: CYP102A1 heme domain with residues 65-256 from CYP102A2 (protein)
chain: TIKEMPQPKTFGELKNLPLLNTDKPVQALMKIADELGEIFKFEAPGRVTRYLSSQRLIKEACDEERFDKSIEGALEKVRAFSGDGLATSWTHEPNWRKAHNILMPTFSQRAMKDYHEKMVDIAVQLIQKWARLNPNEAVDVPGDMTRLTLDTIGLCGFNYRFNSYYRETPHPFINSMVRALDEAMHQMQRLDVQDKLMVRTKRQFRYDIQTMFSLVDSIIAERRANGDQDEKDLLARMLNVEDPETGEKLDDENIRFQIITFLIAGHETTSGLLSFALYFLVKNPHVLQKAAEEAARVLVDPVPSYKQVKQLKYVGMVLNEALRLWPTAPAFSLYAKEDTVLGGEYPLEKGDELMVLIPQLHRDKTIWGDDVEEFRPERFENPSAIPQHAFKPFGNGQRACIGQQFALHEATLVLGMMLKHFDFEDHTNYELDIKETLTLKPEGFVVKAKSKKIPLGGIPSPST
modifications: Chimeric Cytochrome P450 heme group sequence from Bacillus megaterium and Bacillus subtilis
notes: CYP102A1 heme domain with residues 65-256 from CYP102A2
B4: Chimera 50-140: CYP102A1 heme domain with residues 50-140 from CYP102A2 (protein)
chain: TIKEMPQPKTFGELKNLPLLNTDKPVQALMKIADELGEIFKFEAPGRVTIVVSGHELVKEVCDEERFDKSIEGALEKVRAFSGDGLATSWTHEPNWRKAHNILMPTFSQRAMKDYHEKMVDIAVQLIQKWARLNPNEAVDVPEDMTRLTLDTIGLCGFNYRFNSFYRDQPHPFITSMVRALDEAMNKLQRANPDDPAYDENKRQFQEDIKVMNDLVDKIIADRKASGEQSDDLLTHMLNGKDPETGEPLDDENIRYQIITFLIAGHETTSGLLSFALYFLVKNPHVLQKAAEEAARVLVDPVPSYKQVKQLKYVGMVLNEALRLWPTAPAFSLYAKEDTVLGGEYPLEKGDELMVLIPQLHRDKTIWGDDVEEFRPERFENPSAIPQHAFKPFGNGQRACIGQQFALHEATLVLGMMLKHFDFEDHTNYELDIKETLTLKPEGFVVKAKSKKIPLGGIPSPST
modifications: Chimeric Cytochrome P450 heme group sequence from Bacillus megaterium and Bacillus subtilis
notes: CYP102A1 heme domain with residues 50-140 from CYP102A2
B5: Chimera 118-194: CYP102A1 heme domain with residues 118-194 from CYP102A2 (protein)
chain: TIKEMPQPKTFGELKNLPLLNTDKPVQALMKIADELGEIFKFEAPGRVTRYLSSQRLIKEACDESRFDKNLSQALKFVRDFAGDGLATSWTHEKNWKKAHNILLPSFSQQAMKGYHAKMVDIAVQLIQKWARLNPNEAVDVPGDMTRLTLDTIGLCGFNYRFNSYYRETPHPFINSMVRALDEAMHQMQRLDVQDPAYDENKRQFQEDIKVMNDLVDKIIADRKASGEQSDDLLTHMLNGKDPETGEPLDDENIRYQIITFLIAGHETTSGLLSFALYFLVKNPHVLQKAAEEAARVLVDPVPSYKQVKQLKYVGMVLNEALRLWPTAPAFSLYAKEDTVLGGEYPLEKGDELMVLIPQLHRDKTIWGDDVEEFRPERFENPSAIPQHAFKPFGNGQRACIGQQFALHEATLVLGMMLKHFDFEDHTNYELDIKETLTLKPEGFVVKAKSKKIPLGGIPSPST
modifications: Chimeric Cytochrome P450 heme group sequence from Bacillus megaterium and Bacillus subtilis
notes: CYP102A1 heme domain with residues 118-194 from CYP102A2

tested on: not listed separately; assay: Thermostability (loss of Soret band at increasing temperatures); assay type: physicochemical; conditions: cell extracts heated 10 minutes
Protocol: Thermostability was assayed by monitoring the loss of the Soret band at increasing temperatures. […] However, thermostability may be important for retention of catalytic activity: the two chimeras that lacked peroxygenase activity were also the least thermostable.
Cell extracts were heated in a thermocycler for 10 minutes at various temperatures, followed by cooling to 4° C. Extracts were centrifuged for 5 minutes at 3500×g to remove any precipitates. Carbon monoxide reduced difference spectroscopy was used to quantitate the amount of P450. The reduction of the carbon monoxide peak was monitored over a range of temperatures.

| Molecule | Tm |
| --- | --- |
| B1 | 55 °C |
| B2 | 39 °C |
| B3 | 36 °C |
| B4 | 52 °C |
| B5 | 47 °C |

tested on: not listed separately; assay: Peroxidase activity with ABTS and H2O2; assay type: biochemical; conditions: 10 mM ABTS, 20 mM H2O2, pH 5.0; activities <0.2 not detectable (N.D.)
From the text: P450s can reduce peroxide to water (and a proton) using a mechanism similar to that of peroxidases, although the intrinsic rate for P450s is many orders of magnitude slower. (Mansuy, D., Comp Biochem Physiol C Pharmacol Toxicol Endocrinol 121, 5-14 (1998)). It has been proposed that the earliest P450 function may have been as a peroxidase. (Gotoh, O., Cytochrome P450, 2nd Edition, pp. 255-272 (1993)). To investigate how recombination affects P450 peroxidase activity, the colorimetric substrate 2,2′-azino-bis(3-ethylbenzothiazoline-6-sulfonate) (ABTS) was used to monitor this reaction (Childs et al., Biochem J 145,93-103 (1975)).
This example provides an example of how one can measure peroxidase activity. Initial rates of peroxidase activity were measured by monitoring the accumulation of the radical cation of ABTS at 414 nm (Childs et al., Biochem J., 145:93-103 (1975)). Enzyme (1 μM) was mixed with 10 mM ABTS in 200 mM phosphate buffer (pH 5.0) in a cuvette at room temperature. Samples were zeroed and reactions were initiated with the addition of H2O2 to a concentration of 20 mM. The absorbance at 414 nm was monitored for 5 minutes. Rates were determined from the steepest portion of the time course. An extinction coefficient of […] for ABTS was used.

| Molecule | Peroxidase activity |
| --- | --- |
| B1 | 6.8 nmol product/nmol P450/min |
| B4 | 10.4 nmol product/nmol P450/min |
| B5 | 34.3 nmol product/nmol P450/min |

same assay, conditions: ABTS

| Molecule | peroxidase activity relative to parents |
| --- | --- |
| B2 | no detectable peroxidase activity |
| B3 | no detectable peroxidase activity |
| B4 | significantly higher peroxidase activities |
| B5 | significantly higher peroxidase activities |

tested on: not listed separately; assay: Peroxygenase activity on 2-phenoxy-ethanol (4-AAP assay); assay type: biochemical; conditions: not given
Protocol: (§1) The chimeras were assayed for hydroxylation of p-nitrophenoxydodecanoic acid (12-pNCA), a fatty acid analog that is hydroxylated by CYP102A1 and CYP102A2 to yield p-nitrophenolate (Schwaneberg et al., Anal Biochem 269,359-366 (1999)). […] When hydroxylation rates for the parent CYP102 enzymes were monitored using the maximum soluble concentrations of these substrates, activity could only be detected on 2-phenoxy-ethanol.
(§2) Rates on 2-phenoxy-ethanol and allyloxy-benzene were determined using 2 μM enzyme, 20 mM H2O2, 1% DMSO, and 1% acetone in 100 mM N-[2-hydroxyethyl]piperazine-N′-[3-propanesulfonic acid] (Epps) (pH 8.2) at room temperature. Substrate concentrations for 2-phenoxy-ethanol (100 mM) and allyloxy benzene (50 mM) maintained saturation. Reactions were initiated by the addition of H2O2 and quenched at appropriate times using an equal volume of a solution containing 4M urea and 100 mM NaOH. 120 μl of 0.6% 4-AAP was added, followed by mixing and addition of 120 μl of 0.6% potassium persulfate. Color was allowed to develop for 20 minutes before absorbance was read at 500 nm. Rates were determined from the linear region of the time course. The major products were determined by GC/MS to be the hemiacetal, which decomposes to phenol. The extinction coefficient for the 4-AAP/phenol complex was determined to be 4,800 M^−1cm^−1. The results can be seen in FIG. 4.

| Molecule | fold higher peroxygenase activity with 2-phenoxy-ethanol than the most active parent (CYP102A1) |
| --- | --- |
| B1 | 6 fold |

same assay, conditions: 100 mM substrate

| Molecule | peroxygenase activity on 2-phenoxy-ethanol |
| --- | --- |
| B1 | highest activity |

tested on: not listed separately; assay: Peroxygenase substrate activity profile; assay type: biochemical; conditions: 20 mM H2O2
Protocol: as §1
Chimeras were assayed for peroxygenase activity on 12-pNCA, 2-phenoxy -ethanol and allyloxy-benzene. […] Rates are reported in nmol product/nmol P450/minute. […] Those with no activity include 65-256 and 277-365. Those with new activity include 165-256, 191-335, and 43-135.
This Example provides one method by which peroxygenase activity of a P450 enzyme may be characterized. First order rates for p-nitrophenolate accumulation were determined using 1 μM enzyme, 20 mM H2O2, 250 μM 12-pNCA and 0.5% dimethyl sulfoxide (DMSO) in 100 mM Tris-HCl (pH 8.2) at room temperature. Enzyme, substrate, buffer and DMSO were combined in a cuvette and zeroed at 410 nm. Reaction mixtures were incubated for 4 minutes and initiated by the addition of H2O2 to a final concentration of 20 mM. Initial rates were determined by monitoring the accumulation of p-nitrophenolate at 410 nm, and data from the first six seconds were used to determine initial rates. […] The extinction coefficient of p-nitrophenolate is 13,200 M^−1cm^−1 (Schwaneberg et al., Anal Biochem 269:359-366 (1999)).
as §2

| Molecule | substrate activity profile relative to parents |
| --- | --- |
| B1 | altered activity |
| B2 | no activity |
| B3 | no activity |
| B4 | parent-like profiles |
| B5 | parent-like profiles |

tested on: Mammalian P450; assay: not given; conditions: cited from earlier work

| Molecule | Mammalian P450 (main mammalian P450 responsible for breakdown) |
| --- | --- |
| CCCCNC(=O)NS(=O)(=O)c1ccc(C)cc1 [Tolbutamide] | CYP2C9 |
| COc1ccc(C(c2ccc(OC)cc2)C(Cl)(Cl)Cl)cc1 [methoxychlor] | CYP2B6 |
| O=C(O)Cc1ccccc1Nc1c(Cl)cccc1Cl [Diclofenac] | CYP2C9 |
| Nc1ccc(-c2ccccc2)cc1 [4-aminobiphenyl] | CYP1A2 |
| Nc1c2c(nc3ccccc13)CCCC2 [Tacrine, 9-amino-1,2,3,4-tetrahydroacridine hydrochloride hydrate] | CYP1A2 |

From patent US8603949B2, “Libraries of optimized cytochrome P450 enzymes and the optimized P450 enzymes” (California Institute of Technology, priority 2003, dated 2013)
